The values that follow come from PMC8808184.

Assay [1] deals with FN1–FN3 region of zebrafish CNTN4 (zebrafish). Put plainly: BLI; biotinylated zebrafish CNTN4(FN1–FN3) immobilised on streptavidin sensors, E1 domains of zebrafish APPb or APLP2 in solution; Octet K2; KD from the signal at equilibrium. For orientation: BLI is a label-free optical method that tracks binding on a fibre tip over time.
Assay [2] has as its target FN1-FN3 domains of zebrafish CNTN4, biotinylated (zebrafish). Put plainly: BLI; Octet K2; biotinylated FN1-FN3 domains of zebrafish CNTN4 immobilised on streptavidin sensors, E1 domains of zebrafish APPb or APLP2 in solution; average constants of the kinetic fit.
For assay [3] the target is unchanged. Put plainly: BLI; Octet K2; biotinylated FN1-FN3 domains of zebrafish CNTN4 immobilised on streptavidin sensors, E1 domains of zebrafish APPb or APLP2 in solution; steady state KD from the maximal signal at equilibrium against concentration.
In assay [4] the target is E1 domain of chicken APP, biotinylated (chicken). Kind of assay: BLI; BLItz; biotinylated amyloid E1 domain ([…] nM) immobilised on streptavidin tips, CNTN FN1-FN3 in solution; room temperature; 150 mM NaCl, 10 mM Na-Hepes pH 7.5, 1 mg/ml BSA, 0.02% Tween-20; steady state KD from the maximal signal at equilibrium against concentration.
For assay [5] the target is unchanged. Kind of assay: BLI; BLItz; biotinylated amyloid E1 domain ([…] nM) immobilised on streptavidin tips, CNTN FN1-FN3 in solution; room temperature; 150 mM NaCl, 10 mM Na-Hepes pH 7.5, 1 mg/ml BSA, 0.02% Tween-20; average constants of the kinetic fit (the paper says koff attained or exceeded the accuracy limits of the instruments).
In assay [6] the target is E1 domain of chicken APLP2, biotinylated (chicken). The description is as above.
The target of assay [7] is E1 domain of human APLP1, biotinylated (human) (UniProt P51693). Kind of assay: BLI; BLItz; biotinylated amyloid E1 domain ([…] nM) immobilised on streptavidin tips, CNTN FN1-FN3 in solution; room temperature; 150 mM NaCl, 10 mM Na-Hepes pH 7.5, 1 mg/ml BSA, 0.02% Tween-20; steady state KD from the maximal signal at equilibrium against concentration.
Sequence of E1 domain of human APLP1, biotinylated (human) (P51693 50-212): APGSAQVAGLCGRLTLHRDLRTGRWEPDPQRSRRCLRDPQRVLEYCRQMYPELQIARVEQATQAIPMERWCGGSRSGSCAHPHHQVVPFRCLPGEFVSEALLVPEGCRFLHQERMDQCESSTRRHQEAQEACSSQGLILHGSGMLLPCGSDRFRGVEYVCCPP
In assay [8] the target is E1 domain of human APP, biotinylated (human) (UniProt P05067). Described as above.
The target in assay [9] is E1 domain of human APLP1, biotinylated (human) (UniProt P51693). Kind of assay: BLI; BLItz; biotinylated amyloid E1 domain ([…] nM) immobilised on streptavidin tips, CNTN FN1-FN3 in solution; room temperature; 150 mM NaCl, 10 mM Na-Hepes pH 7.5, 1 mg/ml BSA, 0.02% Tween-20; average constants of the kinetic fit (the paper says koff attained or exceeded the accuracy limits of the instruments).

The target of assay [10] is E1 domain of human APP, biotinylated (human) (UniProt P05067). Described as above.
Assay [11] concerns the target E1 domain of human APLP2, biotinylated (human) (UniProt Q06481). Described as above.
Assay [12] shares this target. Kind of assay: BLI; BLItz; biotinylated amyloid E1 domain ([…] nM) immobilised on streptavidin tips, CNTN FN1-FN3 in solution; room temperature; 150 mM NaCl, 10 mM Na-Hepes pH 7.5, 1 mg/ml BSA, 0.02% Tween-20; steady state KD from the maximal signal at equilibrium against concentration.
In assay [13] the target is E1 domain of mouse APP, biotinylated (mouse) (UniProt P12023). Put plainly: BLI; BLItz; biotinylated amyloid E1 domain ([…] nM) immobilised on streptavidin tips, CNTN FN1-FN3 in solution; room temperature; 150 mM NaCl, 10 mM Na-Hepes pH 7.5, 1 mg/ml BSA, 0.02% Tween-20; average constants of the kinetic fit (the paper says koff attained or exceeded the accuracy limits of the instruments).

The target in assay [14] is E1 domain of zebrafish APPb, biotinylated (zebrafish). The assay is described as above.
The target of assay [15] is E1 domain of chicken APLP2 (chicken). Kind of assay: BLI; biotinylated E1 domain ([…] nM) immobilised on streptavidin tips, CNTN FN1–FN3 in solution; room temperature; 150 mM NaCl, 10 mM Na-Hepes pH 7.5, 1 mg/ml BSA, 0.02% Tween-20; BLItz or Octet K2; KD from the signal at equilibrium.
Assay [16] concerns the target E1 domain of chicken APP (chicken). The assay is described as above.
Assay [17] concerns the target E1 domain of zebrafish APPb (zebrafish). The assay is described as above.
Assay [18] addresses extracellular region of amyloid precursor protein (APP) fused to human IgG1 Fc or to FcYTS (UniProt P12023). Put plainly: AlphaScreen or HTRF; ectodomain-FcYTS on Strep-Tactin donor beads and ectodomain-Fc on protein A acceptor beads; dialysed HEK293 conditioned media; both tag orientations; 1 h at room temperature; 150 mM NaCl, 20 mM Na-Hepes pH 7.5, 2 mM CaCl2, 2 mM MgCl2, BSA, Triton X-100, Tween-20; a pair counts with signal over background of at least two in each orientation. For orientation: Bead proximity is the source of the signal in Alpha formats.

The term koff denotes the first-order rate constant of dissociation. The low end stands for slow dissociation, the high end for fast dissociation. As a reminder, the kon is the second-order rate constant of association. Read a low kon as slower complex formation.

Sequence of E1 domain of human APLP2, biotinylated (human) (Q06481 46-205): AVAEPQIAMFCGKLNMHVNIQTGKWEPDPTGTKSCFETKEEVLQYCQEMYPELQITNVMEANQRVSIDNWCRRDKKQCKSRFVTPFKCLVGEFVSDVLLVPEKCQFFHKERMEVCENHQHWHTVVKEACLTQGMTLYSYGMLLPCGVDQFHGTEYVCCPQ
Sequence of FN1-FN3 region of mouse CNTN3 (Q07409 20-1002): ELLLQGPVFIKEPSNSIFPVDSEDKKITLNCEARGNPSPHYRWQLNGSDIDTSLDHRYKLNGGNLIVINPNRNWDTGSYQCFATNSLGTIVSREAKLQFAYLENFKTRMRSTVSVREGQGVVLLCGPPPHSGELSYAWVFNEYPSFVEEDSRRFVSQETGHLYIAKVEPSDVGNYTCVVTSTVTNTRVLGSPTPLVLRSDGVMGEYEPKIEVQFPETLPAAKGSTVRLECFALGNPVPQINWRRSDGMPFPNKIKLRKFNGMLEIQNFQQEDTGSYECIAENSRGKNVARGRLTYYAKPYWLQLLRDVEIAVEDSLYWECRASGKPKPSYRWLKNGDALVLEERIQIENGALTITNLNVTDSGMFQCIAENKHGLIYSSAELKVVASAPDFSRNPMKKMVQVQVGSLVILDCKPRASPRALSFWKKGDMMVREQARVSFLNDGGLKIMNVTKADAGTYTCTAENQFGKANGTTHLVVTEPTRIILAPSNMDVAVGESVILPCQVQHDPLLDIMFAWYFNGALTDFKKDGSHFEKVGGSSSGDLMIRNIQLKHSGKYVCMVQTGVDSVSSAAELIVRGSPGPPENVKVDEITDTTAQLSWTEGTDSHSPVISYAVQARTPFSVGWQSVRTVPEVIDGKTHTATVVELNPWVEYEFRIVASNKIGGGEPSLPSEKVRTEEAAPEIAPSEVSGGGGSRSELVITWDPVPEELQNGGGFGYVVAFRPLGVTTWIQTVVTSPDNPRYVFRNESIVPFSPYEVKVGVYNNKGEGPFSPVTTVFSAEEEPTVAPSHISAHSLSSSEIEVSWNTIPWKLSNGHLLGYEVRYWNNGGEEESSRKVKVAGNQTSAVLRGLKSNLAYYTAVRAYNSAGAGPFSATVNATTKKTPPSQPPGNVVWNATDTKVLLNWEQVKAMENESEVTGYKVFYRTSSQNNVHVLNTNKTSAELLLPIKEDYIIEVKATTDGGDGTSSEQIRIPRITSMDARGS
Sequence of ectodomain of contactin 4 (CNTN4) fused to human IgG1 Fc or to FcYTS (Q69Z26 19-1000): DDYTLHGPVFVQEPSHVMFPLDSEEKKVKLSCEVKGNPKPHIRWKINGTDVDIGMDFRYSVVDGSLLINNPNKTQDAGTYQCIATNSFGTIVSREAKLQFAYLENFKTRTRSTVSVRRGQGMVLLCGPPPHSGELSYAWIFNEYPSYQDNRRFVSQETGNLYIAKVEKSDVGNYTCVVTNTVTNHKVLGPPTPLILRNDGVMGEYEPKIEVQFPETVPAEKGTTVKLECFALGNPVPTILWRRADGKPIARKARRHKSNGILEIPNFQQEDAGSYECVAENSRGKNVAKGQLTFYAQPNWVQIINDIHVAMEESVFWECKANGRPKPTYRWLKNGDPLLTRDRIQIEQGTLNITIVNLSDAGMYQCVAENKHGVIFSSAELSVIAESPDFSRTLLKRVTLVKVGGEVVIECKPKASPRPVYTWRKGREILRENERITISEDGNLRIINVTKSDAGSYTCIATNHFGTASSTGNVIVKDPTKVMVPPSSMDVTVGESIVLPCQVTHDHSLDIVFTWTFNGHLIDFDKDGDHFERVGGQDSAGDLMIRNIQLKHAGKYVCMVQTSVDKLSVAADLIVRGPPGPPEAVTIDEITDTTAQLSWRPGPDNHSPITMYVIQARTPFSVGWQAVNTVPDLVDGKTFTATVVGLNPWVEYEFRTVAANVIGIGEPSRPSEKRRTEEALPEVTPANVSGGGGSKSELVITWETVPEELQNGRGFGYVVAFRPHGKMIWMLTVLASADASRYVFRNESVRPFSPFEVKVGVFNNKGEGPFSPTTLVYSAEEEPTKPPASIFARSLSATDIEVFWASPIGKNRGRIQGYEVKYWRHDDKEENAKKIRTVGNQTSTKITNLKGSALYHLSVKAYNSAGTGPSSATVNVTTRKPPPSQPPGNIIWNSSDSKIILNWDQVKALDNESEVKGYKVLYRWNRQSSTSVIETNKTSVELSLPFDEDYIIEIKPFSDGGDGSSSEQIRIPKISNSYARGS

In the case of “E1 domain of zebrafish APLP2 (domain or fragment)”, the Kd in [1] turned out to be 21.4 µM.

With “E1 domain of zebrafish APPb (domain or fragment)”, the Kd in assay [1] was determined as 0.4 µM. In assay [2], the Kd worked out at 0.11 µM, the dissociation rate constant (koff) was 0.03 s⁻¹ and the kon was determined as 170000 M⁻¹ s⁻¹. The substance further yielded a Kd in assay [3] of 0.401 µM.

Turning to “FN1-FN3 region of chicken CNTN3 (domain or fragment)”, the Kd in [4] is 46.8 µM. Moreover, in assay [5], the Kd was 182 µM, the koff came to 0.9 s⁻¹ and the kon was 7250 M⁻¹ s⁻¹.

For the substance “FN1-FN3 region of chicken CNTN4 (domain or fragment)”, in assay [6], the Kd amounted to 26.6 µM, the koff was 0.33 s⁻¹ and the kon was 21600 M⁻¹ s⁻¹. Also, in assay [5], the Kd was 8.2 µM, the koff is 0.19 s⁻¹ and the kon came to 33900 M⁻¹ s⁻¹.

“FN1-FN3 region of chicken CNTN4 T751A, V752A (domain or fragment)” registered a Kd in assay [4] of 20.9 µM. In addition, in [5], the Kd amounted to 441 µM, the koff stood at 0.38 s⁻¹ and the kon turned out to be 10300 M⁻¹ s⁻¹.

“FN1-FN3 region of chicken CNTN4 Y781A, E786A (domain or fragment)”: the Kd in assay [4] worked out at 115 µM. For the same substance, in [5], the Kd was 330 µM, the koff is 0.59 s⁻¹ and the kon was 5450 M⁻¹ s⁻¹.

Take “FN1-FN3 region of human CNTN3 (from UniProt Q9P232 20-1002) (domain or fragment)”: the Kd is 9.1 µM in [7], 63.3 µM in [8], 4.5 µM in assay [9] and 403 µM in [10]. Moreover, the koff came to 0.1 s⁻¹ in [9] and 0.79 s⁻¹ in assay [10]. Moreover, the kon was found to be 2190 M⁻¹ s⁻¹ in assay [9] and 2560 M⁻¹ s⁻¹ in assay [10].

“FN1-FN3 region of human CNTN4 (from UniProt Q8IWV2 19-1000) (domain or fragment)”: the Kd in assay [7] stood at 1.5 µM; in assay [8], 8 µM; in assay [9], 0.4 µM; in [11] it was 4.8 µM; in assay [10] it was 18.7 µM. The koff in [9] stood at 0.03 s⁻¹; in [11] it was 0.2 s⁻¹; in [10], 0.33 s⁻¹. In addition, the figures for the kon in assay [9], in assay [11] and in assay [10] were 64500 M⁻¹ s⁻¹, 43000 M⁻¹ s⁻¹ and 19200 M⁻¹ s⁻¹, respectively.

Take “FN1-FN3 region of human CNTN5 (from UniProt O94779 19-1072) (domain or fragment)”: the Kd in assay [7] is 10.9 µM; in assay [12], 38.6 µM; in [9], 9.8 µM; in assay [11], 36.6 µM. The koff in assay [9] was 0.17 s⁻¹; in [11], 0.37 s⁻¹. In addition, the kon in [9] is 17700 M⁻¹ s⁻¹; in [11], 9440 M⁻¹ s⁻¹.

On to “FN1-FN3 region of mouse CNTN3 (from UniProt Q07409 20-1002) (domain or fragment)”, for which, in assay [13], the Kd was 2.9 µM, the koff was determined as 0.15 s⁻¹ and the kon was 56200 M⁻¹ s⁻¹.

On to “FN1-FN3 region of zebrafish CNTN5 (domain or fragment)”, for which, in [14], the Kd came to 64.4 µM, the off-rate constant (koff) was determined as 0.59 s⁻¹ and the on-rate constant (kon) was determined as 9560 M⁻¹ s⁻¹.

For “FN1–FN3 region of chicken CNTN4 (domain or fragment)”, the Kd in assay [15] worked out at 28.2 µM; in assay [16] it was 5.4 µM.

“FN1–FN3 region of chicken CNTN4, T751A and V752A (domain or fragment)”: the fold reduction in affinity against wild-type chicken CNTN4 in [16] amounted to 4 fold.

As to “FN1–FN3 region of chicken CNTN4, Y781A and E786A (domain or fragment)”, the Kd in assay [16] came out at 115 µM.

On to “FN1–FN3 region of zebrafish CNTN5 (domain or fragment)”, for which, in assay [17], the Kd is 26.8 µM.

In [18], “ectodomain of contactin 4 (CNTN4) fused to human IgG1 Fc or to FcYTS (from UniProt Q69Z26 19-1000) (Fc fusion)” registered a luminescent signal of 1.56e+06 and a luminescent signal divided by the signal of APP-FcYTS with Fc only of 848.
